Measured values taken from the supplement of paper PMC10126150.
± gives the standard deviation of the averaged measurements.

These sequences were tested on ATP (assay: switch fluorescence ratio, 500 uM ATP over buffer (Cy3 cluster intensity, sum of 5 cycles each) (fold (ratio)); higher = stronger signal-on switching upon ATP binding; sequences stand for … in TCGTCGGCAGCGTCAGATGTGTATAAGAGACAGTTTTTTTTTTTTTTTTTTTTTTTTT…TC). Conditions: aptamer strand: ATP DNA aptamer (quencher-CACCTGGGGGAGTATTGCGGAGGAAGG + anchor), 100 nM annealed; ATP concentration: 500 uM.
Procedure, shortened: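 Clusters with intensities outside 100-1000 RFU were excluded. The remaining Cy3-labelled switching-strand clusters on a modified Illumina MiSeq flow-cell had been annealed to 100 nM quencher-labelled ATP aptamer and imaged in selection buffer, then after 15 min with 500 uM ATP at 22 °C, for five cycles separated by NaOH stripping and re-annealing. The fluorescence ratio, averaged per switch-domain sequence, is each cluster's summed target-cycle Cy3 intensity over its summed buffer-cycle Cy3 intensity.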
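Further: ATP exposure 15 min at 22 °C before imaging.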

Row | Sequence | switch fluorescence ratio
1 | ATATAAGTTC | 1.06 ± 0.055
2 | ATATACGTTG | 1.03 ± 0.011
3 | ATATAGGGGG | 0.997 ± 0.014
4 | ATATATAGCC | 1.01 ± 0.022
5 | ATATATCTAG | 0.998 ± 0.029
6 | ATATATGGGA | 0.973 ± 0.022
7 | ATATATGGTT | 0.988 ± 0.036
8 | ATATATGTTT | 0.9649 ± 0.0016
9 | ATATATTGGC | 1.02 ± 0.054
10 | ATATATTTGT | 1.008 ± 0.0041
11 | ATATCAAAAT | 1.01 ± 0.013
12 | ATATCAATGT | 1 ± 0.028
13 | ATATCAGTTC | 1.012 ± 0.0091
14 | ATATCATCGG | 0.964 ± 0.025
15 | ATATCCTCCC | 1.35 ± 0.016
16 | ATATCGCTGA | 0.987 ± 0.013
17 | ATATCGGAGG | 0.99 ± 0.041
18 | ATATCGGATG | 1.071 ± 0.0078
19 | ATATCGTTGA | 0.978 ± 0.021
20 | ATATCTCCGG | 1.07 ± 0.014
21 | ATATGAAAGT | 0.977 ± 0.024
22 | ATATGAATGA | 1.01 ± 0.015
23 | ATATGATAGA | 0.9921 ± 0.0026
24 | ATATGCATAG | 1.05 ± 0.051
25 | ATATGCTATC | 1.02 ± 0.014

Row | Sequence | switch fluorescence ratio
26 | ATATGCTGGT | 0.982 ± 0.014
27 | ATATGCTGTA | 0.989 ± 0.032
28 | ATATGGAAAT | 1.006 ± 0.0027
29 | ATATGGAGTT | 0.943 ± 0.022
30 | ATATGGGTGG | 1.01 ± 0.016
31 | ATATGGTATT | 0.99 ± 0.023
32 | ATATGTATGA | 1.003 ± 0.0037
33 | ATATGTCAGA | 0.9958 ± 0.0056
34 | ATATGTCGCT | 1.01 ± 0.026
35 | ATATGTGGTG | 1.02 ± 0.028
36 | ATATGTTTGG | 1.01 ± 0.018
37 | ATATTACGGG | 1.03 ± 0.039
38 | ATATTAGGCA | 1.01 ± 0.037
39 | ATATTATTAC | 1.06 ± 0.016
40 | ATATTATTGT | 0.9911 ± 0.0085
41 | ATATTCCACA | 0.9984 ± 0.0093
42 | ATATTCTTGT | 1.009 ± 0.0095
43 | ATATTCTTTT | 1.03 ± 0.091
44 | ATATTGACGG | 1.09 ± 0.12
45 | ATATTGAGAT | 0.998 ± 0.037
46 | ATATTGAGGG | 1.01 ± 0.00033
47 | ATATTGCGTT | 1.01 ± 0.02
48 | ATATTGGATT | 0.994 ± 0.018
49 | ATATTGGGGC | 0.993 ± 0.017
50 | ATATTGGTTA | 0.9923 ± 0.0052

Row | Sequence | switch fluorescence ratio
51 | ATATTGGTTT | 0.997 ± 0.011
52 | ATATTGTTGG | 0.972 ± 0.031
53 | ATATTGTTTT | 1.02 ± 0.019
54 | ATATTTACGG | 1.079 ± 0.0071
55 | ATATTTCATT | 0.961 ± 0.012
56 | ATATTTCCTA | 0.989 ± 0.033
57 | ATATTTGTTT | 0.993 ± 0.022
58 | ATATTTTGAC | 1.05 ± 0.061
59 | ATATTTTTTA | 0.9761 ± 0.0095
60 | ATATTTTTTG | 0.978 ± 0.024
61 | ATCAAACGAG | 1.006 ± 0.0073
62 | ATCAAACTCG | 0.979 ± 0.029
63 | ATCAAAGAAC | 1.05 ± 0.042
64 | ATCAACTTAT | 1.02 ± 0.044
65 | ATCAAGGATG | 1.03 ± 0.038
66 | ATCAATGTGC | 0.962 ± 0.088
67 | ATCAATTGTT | 0.989 ± 0.015
68 | ATCACAAATA | 1.02 ± 0.024
69 | ATCACAGCTA | 1.04 ± 0.017
70 | ATCACTCTTT | 1.02 ± 0.058
71 | ATCAGAGTGC | 1.03 ± 0.06
72 | ATCAGCGATC | 2.24 ± 0.22
73 | ATCAGCGTTT | 1.012 ± 0.0092
74 | ATCAGGATCG | 1.01 ± 0.014
75 | ATCAGGGCGT | 0.987 ± 0.032

Row | Sequence | switch fluorescence ratio
76 | ATCAGGGGGA | 0.997 ± 0.02
77 | ATCAGTTAAT | 0.996 ± 0.032
78 | ATCAGTTTGG | 1.01 ± 0.015
79 | ATCATAGGAT | 1.0329 ± 0.00082
80 | ATCATATATC | 0.983 ± 0.089
81 | ATCATGCGCT | 0.9964 ± 0.0092
82 | ATCATGCGGC | 0.983 ± 0.014
83 | ATCATGGAGG | 0.993 ± 0.017
84 | ATCATGGCGG | 0.99 ± 0.017
85 | ATCATTAGAA | 0.976 ± 0.031
86 | ATCATTATAT | 0.99007 ± 0.00051
87 | ATCATTATTG | 1 ± 0.013
88 | ATCCCCATGG | 1.91 ± 0.051
89 | ATCCCCGGCC | 1.03 ± 0.022
90 | ATCCGAGATG | 1.034 ± 0.0074
91 | ATCCGGGTTC | 1 ± 0.015
92 | ATCCGTTTTG | 0.986 ± 0.02
93 | ATCCTACAGC | 1.1 ± 0.025
94 | ATCCTATTGT | 1.03 ± 0.036
95 | ATCCTCGATT | 0.964 ± 0.0095
96 | ATCCTGCAGT | 1.15 ± 0.031
97 | ATCGAAGAGG | 0.995 ± 0.048
98 | ATCGAAGGGG | 0.981 ± 0.065
99 | ATCGAATAGC | 1.02 ± 0.034
100 | ATCGACGGGG | 1.01 ± 0.01

Row | Sequence | switch fluorescence ratio
101 | ATCGACGTTT | 1.03 ± 0.055
102 | ATCGATATAT | 0.991 ± 0.036
103 | ATCGATCTGG | 1 ± 0.015
104 | ATCGCAGCTC | 1.62 ± 0.017
105 | ATCGCAGGCG | 1.035 ± 0.0068
106 | ATCGCATGTC | 1.23 ± 0.094
107 | ATCGCCATCC | 1.235 ± 0.0026
108 | ATCGCCTTGC | 1.163 ± 0.001
109 | ATCGCGTTGG | 0.983 ± 0.027
110 | ATCGGAAACT | 1.03 ± 0.039
111 | ATCGGAAGAA | 1.01 ± 0.017
112 | ATCGGAAGCG | 1.03 ± 0.011
113 | ATCGGAATGG | 1.05 ± 0.024
114 | ATCGGACTTG | 0.977 ± 0.033
115 | ATCGGAGGTC | 0.978 ± 0.037
116 | ATCGGAGTAT | 0.996 ± 0.034
117 | ATCGGATTTT | 1.17 ± 0.22
118 | ATCGGCGTAT | 1.01 ± 0.012
119 | ATCGGGAATG | 1.019 ± 0.0018
120 | ATCGGGACGG | 0.9829 ± 0.0029
121 | ATCGGGAGAG | 1.05 ± 0.026
122 | ATCGGGAGGA | 1 ± 0.029
123 | ATCGGGGGGA | 0.986 ± 0.034
124 | ATCGGGGGGG | 1 ± 0.035
125 | ATCGGGGTAG | 0.9985 ± 0.0038

Row | Sequence | switch fluorescence ratio
126 | ATCGGGGTGC | 1.03 ± 0.016
127 | ATCGGTGGTG | 0.9839 ± 0.0058
128 | ATCGTAAGGG | 0.983 ± 0.038
129 | ATCGTAATTT | 0.971 ± 0.062
130 | ATCGTCAGAA | 0.969 ± 0.0068
131 | ATCGTCGTGC | 0.975 ± 0.015
132 | ATCGTGAGGC | 1.05 ± 0.022
133 | ATCGTGTG | 1.01 ± 0.038
134 | ATCGTGTTTG | 0.952 ± 0.043
135 | ATCGTTCGGC | 0.976 ± 0.037
136 | ATCGTTCTGC | 1.1 ± 0.019
137 | ATCGTTTATT | 0.99436 ± 0.00033
138 | ATCGTTTTTT | 0.973 ± 0.018
139 | ATCTAAGTTC | 1.01 ± 0.017
140 | ATCTAGCGGA | 1.02 ± 0.022
141 | ATCTAGGCAG | 0.9915 ± 0.0043
142 | ATCTATCCAC | 1.09 ± 0.037
143 | ATCTATCTTG | 0.9777 ± 0.0012
144 | ATCTATGCTT | 0.989 ± 0.023
145 | ATCTATGGGT | 0.987 ± 0.01
146 | ATCTATTAGC | 0.9896 ± 0.009
147 | ATCTATTGGG | 0.991 ± 0.0066
148 | ATCTATTGTG | 0.974 ± 0.013
149 | ATCTCGGATT | 0.9869 ± 0.0041
150 | ATCTCGGCCG | 0.9864 ± 0.0012

Row | Sequence | switch fluorescence ratio
151 | ATCTCGGGCT | 0.973 ± 0.042
152 | ATCTGAATTG | 0.988 ± 0.013
153 | ATCTGCGCGC | 0.992 ± 0.011
154 | ATCTGGGGGA | 0.979 ± 0.046
155 | ATCTGGGGTG | 1.02 ± 0.03
156 | ATCTGTACGA | 1.02 ± 0.027
157 | ATCTGTGATA | 0.977 ± 0.048
158 | ATCTGTGATG | 0.987 ± 0.024
159 | ATCTGTTTTG | 1.02 ± 0.049
160 | ATCTTAAGAT | 0.984 ± 0.066
161 | ATCTTAAGTA | 0.9977 ± 0.0091
162 | ATCTTAGGGT | 0.978 ± 0.039
163 | ATCTTAGGTT | 1.03 ± 0.096
164 | ATCTTCAACT | 1.052 ± 0.01
165 | ATCTTCCCCC | 1.55 ± 0.016
166 | ATCTTGGCAG | 0.968 ± 0.034
167 | ATCTTGGTTG | 1 ± 0.026
168 | ATCTTTGCTA | 1 ± 0.036
169 | ATGAAAAATT | 1.01 ± 0.031
170 | ATGAAAACGT | 1 ± 0.014
171 | ATGAAAGCAC | 1.09 ± 0.061
172 | ATGAAATAGT | 0.959 ± 0.046
173 | ATGAACATTT | 1 ± 0.033
174 | ATGAAGATTA | 0.987 ± 0.043
175 | ATGAAGTCGC | 1.01 ± 0.025

Row | Sequence | switch fluorescence ratio
176 | ATGAATCTCG | 0.9898 ± 0.0075
177 | ATGACGCGGA | 1.048 ± 0.0097
178 | ATGACTTACG | 1.08 ± 0.02
179 | ATGAGAAGTT | 1.01 ± 0.007
180 | ATGAGATCAG | 1.003 ± 0.005
181 | ATGAGCATGG | 1.1 ± 0.016
182 | ATGAGCCACT | 0.994 ± 0.03
183 | ATGAGCGACG | 0.9921 ± 0.0088
184 | ATGAGGAGTT | 0.996 ± 0.025
185 | ATGAGGCCTT | 1.01 ± 0.019
186 | ATGAGGGCTA | 0.983 ± 0.044
187 | ATGAGGGGAA | 1.04 ± 0.034
188 | ATGAGTACAG | 1.02 ± 0.027
189 | ATGAGTGTGG | 1.02 ± 0.021
190 | ATGATATCTA | 0.993 ± 0.022
191 | ATGATATGGT | 0.983 ± 0.029
192 | ATGATCGATG | 0.979 ± 0.026
193 | ATGATCGGGT | 1.02 ± 0.031
194 | ATGATGGGT | 1.01 ± 0.028
195 | ATGATTAAGA | 1.02 ± 0.019
196 | ATGATTGGAT | 0.996 ± 0.029
197 | ATGATTGGTT | 1 ± 0.022
198 | ATGATTGTGG | 0.997 ± 0.028
199 | ATGATTTAAC | 0.976 ± 0.035
200 | ATGATTTGGT | 0.983 ± 0.026
